Results reported in IntAct's records for PubMed 16888620.

Molecular target: sgk3_human SGK3 (UniProt Q96BR1)
Sequence (Q96BR1 whole entry): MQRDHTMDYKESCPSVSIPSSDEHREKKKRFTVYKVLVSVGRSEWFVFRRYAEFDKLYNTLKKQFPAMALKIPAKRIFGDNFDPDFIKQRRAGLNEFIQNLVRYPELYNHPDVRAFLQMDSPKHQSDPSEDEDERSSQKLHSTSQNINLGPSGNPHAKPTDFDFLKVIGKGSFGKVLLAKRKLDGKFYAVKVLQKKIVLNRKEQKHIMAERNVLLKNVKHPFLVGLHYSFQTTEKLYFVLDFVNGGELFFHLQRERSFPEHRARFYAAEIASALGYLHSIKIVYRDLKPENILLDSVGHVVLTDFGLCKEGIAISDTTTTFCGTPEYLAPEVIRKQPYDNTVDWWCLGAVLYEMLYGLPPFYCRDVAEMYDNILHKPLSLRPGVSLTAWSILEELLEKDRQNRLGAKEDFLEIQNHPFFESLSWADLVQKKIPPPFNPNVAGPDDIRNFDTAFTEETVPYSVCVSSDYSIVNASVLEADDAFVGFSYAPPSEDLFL

effect of a mutation on the interaction | Substance
disrupting interaction strength | E3 ubiquitin-protein ligase Itchy homolog (Homo sapiens), Q96J02 S450A
decreasing interaction strength | E3 ubiquitin-protein ligase Itchy homolog (Homo sapiens), Q96J02 T385A
